The text below walks through data of the supplement of paper PMC7125110.

± gives the standard error. Fewer inactive variants are shown than the library holds.

B1: glmS ribozyme (parent)
chain: AUAAAAGCGCCAGAACUACAGAAAUGUAGUUGACGAGGAGGAGGUUUAUCGAAUUUUCGGCGGAUGCCUCCAAA

The first series covers variants of B1. Description: self-cleavage kobs at 2500 uM GlcN6P; higher = faster cleavage; RNA array. Conditions: with glucosamine-6-phosphate. In outline:
(§1)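 Ribozyme variants carrying barcodes were transcribed in situ on sequenced MiSeq chips by E. coli RNA polymerase and tracked at 37 °C with a hybridised Cy3 probe. They were exposed to 40 μM to 10 mM glucosamine-6-phosphate in HEPES/KCl/Mg(OAc)2 buffer. kobs came from exponential decay fits of normalised per-tile medians, and kcat and KM from weighted Michaelis–Menten fits.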
Turning to AUAAAGGCGCCAGAACUACAGAAAUGUAGUUGACGAGGAGGAGGUUUAUCGGAUUUUCGGCCGAUGCCUCCAAA, the “self-cleavage kobs at 2500 uM GlcN6P” value is under 1e-05 s⁻¹.

In the case of AUAAAAGCGCCAGAACUACAGAAAUGUAGUUGACGAGGAGGAGGUUUAUCGAAUUUUCGGCGGCUGGAUCCAAA, the “self-cleavage kobs at 2500 uM GlcN6P” value is 6.52e-05 ± 1.8e-05 s⁻¹.

Consider AUAAAAGCGGCAGAACUACAGAAAUGUAGUUGACGAGGACGAGGUUUAUCGAAUUUUCUGCGGAUGCCUCCAAA, for which the “self-cleavage kobs at 2500 uM GlcN6P” value is under 1e-05 s⁻¹.

AUAAAAGCGCCAGAAGUACAGAAAUGUAGUUGACGAGGCGGAGGUUUAUCGAAUUUUCGGUGCAUGCCUCCAAA: the “self-cleavage kobs at 2500 uM GlcN6P” value was under 1e-05 s⁻¹.

In the case of AUAAAAGCGCCAGAACUACAGAAAUGUAGUUGACGAGGUGGGGGUUUAUCGAAUUUUCGGCGGUUGCCUCCAAA, the “self-cleavage kobs at 2500 uM GlcN6P” value is 5.16e-05 ± 2.2e-05 s⁻¹.

AUAAAAGCGUUACAACUACAGAAAUGUAGUUGACGAGGAGGUGGUUUAUCGAAAUUUCGGCGGAUGCCUCCAAA: the “self-cleavage kobs at 2500 uM GlcN6P” value is under 1e-05 s⁻¹.

On to AUAAAAGCGCCAGAACUACAGAAAUGUAGUUGACGAGGAGAAGGUUUAUCGAAUUUUCGGCGUAUGCCUUCAAA, for which the “self-cleavage kobs at 2500 uM GlcN6P” value was under 1e-05 s⁻¹.

As for AUAAAAGCGCCAGAAGUACAGAAAUGUAGUUGACGAGGGGGAGGUUUAUCGAAUUUUCGGCGGAUGCCUCUAAA, the “self-cleavage kobs at 2500 uM GlcN6P” value stood at 0.0054 ± 0.0016 s⁻¹.

Turning to AUAAAAGUUCCAGAUCUACAGAAAUGUAGUUGACGAGGAGGAGUUUUAUCGAAUUUUCGGCGGAUGCCUCCAAA, the “self-cleavage kobs at 2500 uM GlcN6P” value is under 1e-05 s⁻¹.

Regarding AUAAAAGAGCCUGAACUACAGAAAUGUAGUUGACGAGGAGGAGUUUUAUCGAAUUUUCGGCGGAUGCCUCCAAA, the “self-cleavage kobs at 2500 uM GlcN6P” value is under 1e-05 s⁻¹.

For the variant AUAAAGGCGCCAGAACUACAGAAAUGUAGUUGACGAGGAGGAGGUUUAUCGAAUUUUCUGUGGAUGCCUCCAAA, the “self-cleavage kobs at 2500 uM GlcN6P” value is under 1e-05 s⁻¹.

For AUAAAAGCGCCAGAACUACAGAAAUGUAGUUGACGAGGAGAAGGUUUAUCGAAUUUUCGGAAGAUGCCUCCAAA, the “self-cleavage kobs at 2500 uM GlcN6P” value was under 1e-05 s⁻¹.

AUAAAAGCGCCAGAACUACAGAAAUGUAUUUGACGAGGAGGAGGUUUAUCGAAUUUUGGGCGGAUGCCUCAAAA: the “self-cleavage kobs at 2500 uM GlcN6P” value is 0.000118 ± 3.2e-05 s⁻¹.

AUAAAAGCGCCAGAGCUACAGAAAUGUAGUUGACGAGGAGGAGGUUUAGAGAAUUUUCGCCGGAUGCCUCCAAA: the “self-cleavage kobs at 2500 uM GlcN6P” value is under 1e-05 s⁻¹.

Consider AUAAAAGGGCCAGAACUACAUAAAUGUAGUUGACGAGGAGGAGGUUUAUCGAAUGUUCGUCGGAUGGCUCCAAA, for which the “self-cleavage kobs at 2500 uM GlcN6P” value was under 1e-05 s⁻¹.

Turning to AUAAAAGCGUCAGAACUACAGAAAUGUAGUUGACGAGGAGGAGGUUUAUCGAAUUUUAGGCGGAUGCCUCUAAA, the “self-cleavage kobs at 2500 uM GlcN6P” value is under 1e-05 s⁻¹.

For AUAAAAGCGGCAGAACUACAGAAAUGUAGUUGACGAGGAGGAGGUUGAUCAAAUUUUCGGCGGAUGCCUCCAAA, the “self-cleavage kobs at 2500 uM GlcN6P” value is under 1e-05 s⁻¹.

On to AUAAAAGCGCCAGAACUACAGAAAUGUAGUUGACGAGGAGGAGGUUCAUCGAAUUAUCGGCGGGUGCCUCCAAA, for which the “self-cleavage kobs at 2500 uM GlcN6P” value is 0.000616 ± 0.00019 s⁻¹.

In the case of AUAAAAGCGCCAGAAUUACAGAAAUGUAGUUGACGAGGAGAAGGUUUAUCGAAUUUUCGGCGGAUGUCUCCAAA, the “self-cleavage kobs at 2500 uM GlcN6P” value was under 1e-05 s⁻¹.

Take AUAAAAGCGCCAGGACUACAGAAAUGUAGAUGACGAGGAGGAGGUUUAUAGAAUUUUCGGCGGAUGCCUCCAAA: the “self-cleavage kobs at 2500 uM GlcN6P” value came out at 8.06e-05 ± 2.8e-05 s⁻¹.

Regarding AUAAAAGCGCCAGACCUACAGAAAUGUAGUUGCCGAGGAGGAGGUUUAUCGAAUUUUCGGUGGAUACCUCCAAA, the “self-cleavage kobs at 2500 uM GlcN6P” value was under 1e-05 s⁻¹.

Regarding AUAAAAGCGCCAGAACUACAGAAAUGUAGUCGACGAGGAGGAGGUUUAUCGAAUUGUCGGCGGAUGACUCCAAA, the “self-cleavage kobs at 2500 uM GlcN6P” value was determined as 6.88e-05 ± 1.8e-05 s⁻¹.

On to AUAAAAGCGCCAGAACUACAGAAAUGUAGUUGACGAGGAGGAGGCUUUUCGAAUUUUCGGCGGAAGCCUCCAAA, for which the “self-cleavage kobs at 2500 uM GlcN6P” value is under 1e-05 s⁻¹.

As to AUAAAAGCUCCAGAACUACAGAAAUGUAGUUGACGAGGAGGAGGUUUAUCGUAUUUUGGGCGGAUGCCUCCAAA, the “self-cleavage kobs at 2500 uM GlcN6P” value was under 1e-05 s⁻¹.

In the case of AUAAAAGCGCCAGAACUACAGAAAUGUAGUUGACGCGGAGGAGGUUUAUCGAAUUUUCUUCGGAUGCCUGCAAA, the “self-cleavage kobs at 2500 uM GlcN6P” value was under 1e-05 s⁻¹.

With AUAAAAGCGCCAAAACUACAGAAAUGUAGUUGACGAGGAGGAGGUUAAUCGAAUUUUCGGCGGAUACCUCCAAA, the “self-cleavage kobs at 2500 uM GlcN6P” value was 0.000103 ± 2.2e-05 s⁻¹.

As for AUAAAAGCGCCAGACCUACAGAAAUGUAGUUGACGAGGUGGAGGUUUAUGGAGUUUUCGGCGGAUGCCUCCAAA, the “self-cleavage kobs at 2500 uM GlcN6P” value is under 1e-05 s⁻¹.

Take AUAAAAGCGCCAGAUCUACAGAAAUGUAGUUAACGAGGUGGAGGUUUAUCGAAUUUUCGGCGGAUGCCUCUAAA: the “self-cleavage kobs at 2500 uM GlcN6P” value worked out at 0.000236 ± 0.00011 s⁻¹.

Regarding AUAAAAGCGCCAGAACUACAGAAAUGUAGUUGGCGAGGAGGAGGUGUAUCGAAUUUUCGGCGGAUGCUUCGAAA, the “self-cleavage kobs at 2500 uM GlcN6P” value was 0.000183 ± 5.3e-05 s⁻¹.

For the variant AUAAAAGCGUUAGACCUACAGAAAUGUAGUUGAAGAGGAGGAGGUUUAUCGAAUUUUCGGCGGAUGCCUCCAAA, the “self-cleavage kobs at 2500 uM GlcN6P” value is under 1e-05 s⁻¹.

On to AUAAAAGCGAAAGAACUACAGAAAUGUAGUUGACGAGGAGGAGGUUUAUCUUAUUUUCGGCGGAUGCCUCCAAA, for which the “self-cleavage kobs at 2500 uM GlcN6P” value was under 1e-05 s⁻¹.

For AUAAAAUCCCCAGAACUACAGAAAUGUAGUUGACGAGGAGGAGGUUAAUCGAAUUGUCUGCGGAUGCCUACAAA, the “self-cleavage kobs at 2500 uM GlcN6P” value is under 1e-05 s⁻¹.

AUAAAAGCGCCAGAACUACAGAAAUGUAGUUGACGAGGAGGAGGUUUAUCGAAUAUUCGGCGGCUGCCUCUAAA: the “self-cleavage kobs at 2500 uM GlcN6P” value came out at 7.29e-05 ± 3.2e-05 s⁻¹.

Variants of B1 are the subject of a further series. Description: self-cleavage kobs at 10000 uM GlcN6P; higher = faster cleavage; RNA array. To be noted: with glucosamine-6-phosphate. In outline: as §1
As to AUAAAAGCGCCAGAACUACAGAAAUGUAGUUGACGAGGAGAAGGUUUAUCGAAUUUUCGGCGUAUGCCUUCAAA, the “self-cleavage kobs at 10000 uM GlcN6P” value was under 1e-05 s⁻¹.

As to AUAAAAGCGCCAGAACUACAGAAAUGUAGUUGACGAGGAGGAGGCUUUUCGAAUUUUCGGCGGAAGCCUCCAAA, the “self-cleavage kobs at 10000 uM GlcN6P” value was under 1e-05 s⁻¹.

For AUAAAAGCGCCAAAACUACAGAAAUGUAGUUGACGAGGAGGAGGUUAAUCGAAUUUUCGGCGGAUACCUCCAAA, the “self-cleavage kobs at 10000 uM GlcN6P” value is 0.000143 ± 2.8e-05 s⁻¹.

On to AUAAAAGCGCCAGAUCUACAGAAAUGUAGUUAACGAGGUGGAGGUUUAUCGAAUUUUCGGCGGAUGCCUCUAAA, for which the “self-cleavage kobs at 10000 uM GlcN6P” value turned out to be 0.000208 ± 6.3e-05 s⁻¹.
